Experimental data published in patent publication US8460669B2, “Compositions and methods for identifying response targets and treating flavivirus infection responses” (Academia Sinica, priority 2005, dated 2013).

T1: DVLR1/CLEC5A (Homo sapiens, UniProt Q9NY25)
T1 construct: endogenous in cells; host or cells: human CD14+ PBMC-derived macrophages (M-CSF, 6 days)
T1 sequence (Q9NY25 1-188): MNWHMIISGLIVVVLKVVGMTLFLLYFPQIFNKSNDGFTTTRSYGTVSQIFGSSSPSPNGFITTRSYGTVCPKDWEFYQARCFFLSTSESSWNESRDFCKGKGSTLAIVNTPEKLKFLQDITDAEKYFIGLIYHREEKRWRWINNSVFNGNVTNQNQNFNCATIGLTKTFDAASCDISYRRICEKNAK


Target: T1, DVLR1/CLEC5A
Test: DV-induced TNF-α secretion from human macrophages with anti-DVLR1/CLEC5A mAbs
Format: cell-based
Conditions: for Antagonistic DV1 (suppression of DV-induced TNF-α secretion) / Antagonistic DV2 (suppression of DV-induced TNF-α secretion) / Antagonistic DV3 (suppression of DV-induced TNF-α secretion) / Antagonistic DV4 (suppression of DV-induced TNF-α secretion): antibody 10 μg/sample, p vs isotype control, m.o.i.=5, 36 h p.i.; for TNF-α release from macrophages after infection with DEN1, DEN2, DEN3 and DEN4: dose-dependent manner, ELISA of culture supernatants
Text: Monoclonal antibodies against DVLR1/CLEC5A were generated using standard techniques. Briefly, mice were immunized with DVLR-1.Fc fusion protein, and hybridomas were formed by fusing spienocytes from the mice with P3/NSI/1-Ag4-1 [NS-1] myeloma cells (ATCC TIB-18). Among the mAbs generated, clone 9B12, the subclones of 3E12 (clones 3E12A2, 3E12C1, 3E12G9), and clone 8H8F5 suppressed TNF-α release from macrophages after infection with DEN1 (strain 766733A), DEN2 (strain PL046), DEN3 (strain H-87), and DEN4 (strain 866146A) in a dose-dependent manner. […] In accordance with standard nomenclature, each antibody is referred to via the clone number of the hybridoma that secretes it.
According to embodiments illustrated in FIG. 19, DVLR1/CLEC5A is critical for DV-mediated TNF-α, but not IFN-α, secretion. More specifically, FIG. 19a illustrates the dose-dependency of DV and UV-DV induced TNF-α secretion by macrophages measured by ELISA at 6 h and 12 h p.i. FIG. 19b illustrates the kinetics of TNF-α expression after DV infection (m.o.i.=5). FIG. 19c illustrates the effects of DVLR1/CLEC5A and DC-SIGN shRNAs on the secretion of TNF-α, IL-6, MIP1-α, IL-8, IP-10, and IFN-α from DV-infected macrophages (m.o.i.=5). In FIG. 19d, knockdown experiments with receptor specific shRNAs illustrating that DV-induced IFN-α secretion is via the TLR7-MyD88 pathway and TNF-α secretion is via DVLR1/CLEC5A-TLR7-MyD88 pathway. FIG. 19e illustrates antagonistic anti-DVLR1/CLEC5A mAbs inhibiting TNF-α secretion in response to DV serotypes 1-4 is inhibited (see Table 3).
M.R. mAb (anti-mannose receptor mAb; mIgG1) and murine IgM (mIgM) were used as negative controls. In both FIG. 19d and FIG. 19e, macrophages were infected with DV (m.o.i.=5) and harvested at 36 h p.i. for cytokine assays. Data are expressed as mean±s.d. of three independent experiments (using material from at least three different donors). Two-tailed, Student's t-tests were performed. “ND” represents not detected.

| Molecule | Antagonistic DV1 (suppression of DV-induced TNF-α secretion) | Antagonistic DV2 (suppression of DV-induced TNF-α secretion) | Antagonistic DV3 (suppression of DV-induced TNF-α secretion) | Antagonistic DV4 (suppression of DV-induced TNF-α secretion) | TNF-α release from macrophages after infection with DEN1, DEN2, DEN3 and DEN4 |
| --- | --- | --- | --- | --- | --- |
| 3E12A2: anti-human DVLR1/CLEC5A monoclonal antibody, subclone of 3E12; VH SEQ ID NO: 60, VL SEQ ID NO: 61 (antibody, V domains shown) VH: QVQLEESGPELVKPGASVKLSCKASGYTFTEYIIHWVKQRSGQGLEWIGWFYPGSGSIKYNEKFKDKATLTADKSSSTVYMELSGLTSEDSAVYFCARHDGYSYFDYWGQGTTLTV VL: QSPSSLAVSAGEKVTMSCKSSQSLLNSRTRKNYLAWYQQKPGQSPKLLIYWASTRESGVPDRFTGSGSGTDFTLTISSVQAEDLAVYYCKQSYNLYTFGGGTKLEIK | ** (“**” - p < 0.01) | ** (“**” - p < 0.01) | ** (“**” - p < 0.01) | * (“*” - p < 0.05) | suppressed |
| 3E12G9: anti-human DVLR1/CLEC5A monoclonal antibody, subclone of 3E12; VH SEQ ID NO: 62, VL SEQ ID NO: 63 (antibody, V domains shown) VH: QVQLEQSGPELVKPGASVKLSCKASGYTFTEYIIHWVKQRSGQGLEWIGWFYPGSGSIKYNEKFKDKATLTADKSSSTVYMELSGLTSEDSAVYFCARHDGYSYFDYWGQGTTLTV VL: QSPSSLAVSAGEKVTMSCKSSQSLLNSRTRKNYLAWYQQKPGQSPKLLIYWASTRESGVPDRFTGSGSGTDFTLTISSVQAEDLAVYYCKQSYNLYTFGGGTKLEIK |  | ** (“**” - p < 0.01) | ** (“**” - p < 0.01) |  | suppressed |
| 8H8F5: anti-human DVLR1/CLEC5A monoclonal antibody; VH SEQ ID NO: 64, VL SEQ ID NO: 65 (antibody, V domains shown) VH: ESGRGLVQPGGSRKLSCAASGFTFSTSGMHWVRQAPEKGLEWVAYISSGSTTIYHADTVKGRFTISRDNPKNTLFLQMTSLRSEDTAMYYCARSGQFGNYFDYWGQGTTLTVSS VL: MTQSPKFLLVSAGDRVTLTCKASQSVNNDVYWYQQEPGQSPKLLIYYASNRYTGVPDRFTGSGYGTDFTFTISTVQSEDLAVYFCQHDYSSPYTFGGGTKLEIKR | * (“*” - p < 0.05) | *** (“***” - p < 0.001) | ** (“**” - p < 0.01) | * (“*” - p < 0.05) | suppressed |
